{
  "source": "the DeepSol protein solubility set",
  "data": [
    {"test": "soluble on expression in E. coli; label from the status in PepcDB or PDB records", "values": [
      {"sequence": "MRKAERVRKTNETDIELAFTIDGGGQADIKTDVPFMTHMLDLFTKHGQFDLSINAKGDVDIDDHHTTEDIGICLGQALLEALGDKKGIKRYGSAFVPMDEALAQVVIDLSNRPHLEMRADFPAAKVGTFDTELVHEFLWKLALEARMNLHVIVHYGTNTHHMIEAVFKALGRALDEATTIDPRVKGIPSTKGMLLEHHHHHH", "soluble on expression in E. coli": "not soluble"},
      {"sequence": "MKRQRLVDKEWILQFPIEYFIHKEVHELNSTQAQRLVSLFKNGCETAYIARYRGDVHGYLAPEKIRKAMEAYVDAKNLNNKVSSAISTVTAKVAGAQEKIIVTERFKRCEEFDEVTDISKEYSTGTRKTKANIARALGLEPPAQSILDGNFVDFKSLLSNGLKTVKDVEEHLKICLADLINRDEEVRKVSANIDILKKECRVSAKLSREAEKNRKDLEKRGIIEKYKNFIGEKWNAEDIRDHTVSALNKGFDEGIITWKIECEFNDAKYIHPFSRKSVYFGMKNFYQEALAYSIKNYFIPRIERKMANHLKDKAKDRSIVLFGENVDQLLSQEGIRDKFVIALDPGRSKIKTAFLKPTGEVVDMSSFSIYGTRFDGGGVDLLKKWSQQTERKDIVFAIGNGTNTYNTQIAVSDMINSNVFPKEINVSYCIVPEHGASKYSCTPSAIEEFGENAEITEISAVSIGRRLIDPMSEYVKIEPQHLGKGQYQLSVDPKKLNESLLNVVRDRVSFNGVDLNTASKNLLQRINGLNEKTAKEIVQYREQNGRFRSRAELKEVKGIGALTFQQCAGFLTVSRPDDAEDGPPKKKFKKSSTSKEWNPFDETIVHPDDYRTGESLLGKLNVSIEDITGRIKSFSISRLTAEEAKVLNLLQNLTLKTKMKPPPPLRTKVGQIRDLAEGQRFTGTVSNKTDFGVFIDIGVGQDGLAHISHFKDGHYSLMLPSVNDSVEVVIDKIREDGKISLSPVY", "soluble on expression in E. coli": "not soluble"},
      {"sequence": "MAHHHHHHMKKHKVPCKKFYRQRAHCNPLSDSYIRYPINCSYVDWRVHYPHLAAHGSDAQAEPINSVEATKHITNTEVERPPDEDPPTLQLNTNKYPIDYNQGPPKCAPHAEVTILDIGCGYGGLLFELSKTFPNKLILGMEIRDKITNYVGEKIHSYRKNYPPQYKNISVVRTNAMKFLPNYIKKNQIEKLFFCFPDPHFKKQNWRRRTITIESLSLYYYLLKRDGLIYFITDVYTLFLWVRFCFSKYPGFRLLSPEECQGDICVRLIHHSSEESKRVSKNKQAMYFCVARKE", "soluble on expression in E. coli": "not soluble"},
      {"sequence": "YAGLSRFTLSYHNVEYKLFGYGTILNNTNFPGGSSGSAVFNKEKQLTSIYFGSLINVTTGNNRNVNLGLGQILRTYNTNNSKHS", "soluble on expression in E. coli": "not soluble"},
      {"sequence": "MCMSLRESAAAADAGAGPLAGSARDLLAQWNGGEDVWVFAYGSLIWRPDFAWQERRLATVRGYHRSLLWSHDHRGSPDNPGLVFGLDRGGCCRGVAFRVAGRDVPEVFQALWHREMSGGAYKPRWLRCHTGQAPVRGLAFVPDRRCRHYAGALSDELLIRAVRQAVGRSGACLDYVRETHRALNEHGIVDWRLGALVDRLAQPLEHHHHHH", "soluble on expression in E. coli": "not soluble"},
      {"sequence": "MSVDLKRGETLPIHVNMTFPSLPCDVLSVDAIDMSGKHEVDLDTNIWKLRLNSHGHIIGTEYISDLVEKGHEHDGKEEHKNETETEALNILGFDQAAETMIKKVKQALADGEGCRVYGVLDVQRVAGNFHISVHGLNIYVAQMIFGGSKNVNVSHMIHDLSFGPKYPGIHNPLDDTNRILHDTSGTFKYYIKIVPTEYRYLSKDVLSTNQYSVTEYFTPMTEFDRTWPAVYFLYDLSPITVTIKEERRSFLHLITRLCAVLGGTFALTGMLDRWMFRFIESFNKKPSTRA", "soluble on expression in E. coli": "soluble"},
      {"sequence": "GPGSMKIGVVLGSGGHTSEMLRAITEIPLSYWLDTRPFYVVSATDPHSASLASQLEQQRFERRVVVYTIPRAREVGQSYLMSIITTIRATLACFRFVCTEKPDVLLTNGPGVCVPVIAAAVCVASCAPWWYGRPAIVYMESFTCVSHLSLTGSLLAPWLADVFTVHWRALERAVARRRRRGTLVYVGSETARVTDGAPHRLRSLAAEQEAYALVTVGSTKFSSLVQAVVQPGVCATLHQRFGIKRLYVQHGTAEVVAPPEATLLPALPMAAGADASHPTQQWSCGGLLVEAFPYRPCLDAVIRGATLVITHAGAGTILEGLQAQRPLVVVPNRQLMSDHQLDLAEALANGGFLFCVQVAELAERLPLLDLTTLRPHGGMDAAQLQEALRLVLTGHSASGERAKAD", "soluble on expression in E. coli": "not soluble"}
    ]}
  ]
}
